The values below come from patent US20260234246A1 (CAEDO ONCOLOGY, published 2026).

Experiment [1] addresses T1, human CD47 on the surface of cells (human cancer cell lines and human red blood cells) (human, UniProt Q08722 19-323).
T1 construct: Native CD47 of human cell lines (Jurkat, Reh, CCRF-CEM and others) and of RBCs from healthy donors; also called cell-surface CD47
Nature of the experiment: flow cytometry on Jurkat cells, goat anti-human FITC, MFI against log µg/ml.
Method: PBS-washed cancer cell lines or RBCs were pelleted and washed with washing buffer (3% (w/v) BSA, 1% (w/v) sodium azide in DPBS) and incubated with Human BD Fc Block for 10 minutes before being plated into a round-bottom 96 well plate (2.5×10⁵ cells per well). […] All samples were prepared in duplicates. The cells were washed twice in washing buffer, followed by 30 minutes incubation with Goat anti-human FITC staining buffer (Goat anti-human FITC diluted 1:200 in washing buffer) on ice, protected from light with slight agitation. The cells were analyzed by flow cytometry after three washes in washing buffer. Excitation wavelength FITC: 488 nm, detection: 530/30 nm.

For experiment [2], the target named is T2, recombinant CD47 (recCD47), SinoBiological 12283-H27H-B, biotinylated (human, UniProt Q08722 19-139, biotinylated (AVI-tag)).
T2 construct: Bought protein, 17 kDa; At 17 kDa it can only be a part of it; also called recombinant biotinylated CD47; not shown: C-terminal His- and AVI-tag
Nature of the experiment: SPR Biacore S200, single-cycle, recCD47 on SA chip 100 RU, antibody as analyte, 25 C, 1:1 model.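 Also: antibodies were injected over the captured CD47 at a series of concentrations, and KD was derived as the dissociation rate constant divided by the association rate constant.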

For experiment [3], the target named is T1, human CD47 on the surface of cells …. Nature of the experiment: flow cytometry, FITC-conjugated antibody on Reh cells.
Method: (§1) PBS-washed cancer cell lines or RBCs were pelleted and washed with washing buffer (3% (w/v) BSA, 1% (w/v) sodium azide in PBS) and incubated with Human BD Fc Block for 10 minutes before being plated into a round-bottom 96 well plate (2.5×10⁵ cells per well). Antibodies were conjugated with FITC using the FITC conjugation kit from Abcam. […] All samples were prepared in duplicates. Cells were washed three times and resuspended in cold washing buffer. Cells were kept on ice until analyses by flow cytometry. Excitation wavelength FITC: 488 nm, detection: 530/30 nm.
(§2) 4-parameter curve fitting was performed using GraphPad Prism
For experiment [4] the target is unchanged. Nature of the experiment: flow cytometry, FITC-conjugated antibody on human RBCs.
Method: as §1, §2
For experiment [5] the target is unchanged. Nature of the experiment: flow cytometry, FITC-conjugated antibody on Jurkat cells.
Method: as §1, §2
The target is the same in experiment [6]. Nature of the experiment: flow cytometry, FITC-conjugated antibody on CCRF-CEM cells. (In general: A flow cytometer gives signals particle by particle.)
Method: as §1, §2
Experiment [7] has as its target T2, recombinant CD47 (recCD47), …. Nature of the experiment: SPR Biacore S200, single-cycle (top 1 uM), recCD47 on SA chip 1330 RU, antibody as analyte, 1:1 model. In general terms: SPR reads the build-up and loss of mass on a sensor chip optically.
The target is the same in experiment [8]. Nature of the experiment: SPR Biacore S200, single-cycle (top 80 nM), recCD47 on SA chip 1330 RU, antibody as analyte, 1:1 model.
The target is the same in experiment [9]. Nature of the experiment: SPR Biacore S200, multi-cycle (top 50 nM), run 1, recCD47 on SA chip 1330 RU, antibody as analyte, 1:1 model.
The target is the same in experiment [10]. Nature of the experiment: SPR Biacore S200, multi-cycle (top 50 nM), run 2, recCD47 on SA chip 1330 RU, antibody as analyte, 1:1 model.
Experiment [11] has the same target. Nature of the experiment: SPR Biacore S200, multi-cycle (top 50 nM), recCD47 on SA chip 1330 RU, antibody as analyte, 1:1 model.
Experiment [12] has the same target. Nature of the experiment: SPR Biacore S200, multi-cycle (top 50 nM), recCD47 on SA chip 1330 RU, 1:1 model.
For experiment [13] the target is unchanged. Nature of the experiment: SPR Biacore S200, single-cycle (top 80 nM), recCD47 on SA chip 1330 RU, 1:1 model.
For experiment [14] the target is unchanged. Nature of the experiment: SPR Biacore S200, single-cycle, recCD47 on SA chip 700 RU, antibody as analyte, 25 C, 1:1 model.
The target is the same in experiment [15]. Nature of the experiment: SPR Biacore S200, multi-cycle (top 50 nM), recCD47 on SA chip 1330 RU, 1:1 model; * off-rate difficult to determine.
Experiment [16] shares this target. Nature of the experiment: SPR Biacore S200, single-cycle (top 80 nM), recCD47 on SA chip 1330 RU, 1:1 model; * off-rate difficult to determine.
For experiment [17] the target is unchanged. Nature of the experiment: SPR Biacore S200, single-cycle, recCD47 on SA chip 100 RU, fragment as analyte, 25 C, 1:1 model.

Substitutions are numbered along the chain they refer to.

T1 sequence (Q08722 19-323 limits assumed): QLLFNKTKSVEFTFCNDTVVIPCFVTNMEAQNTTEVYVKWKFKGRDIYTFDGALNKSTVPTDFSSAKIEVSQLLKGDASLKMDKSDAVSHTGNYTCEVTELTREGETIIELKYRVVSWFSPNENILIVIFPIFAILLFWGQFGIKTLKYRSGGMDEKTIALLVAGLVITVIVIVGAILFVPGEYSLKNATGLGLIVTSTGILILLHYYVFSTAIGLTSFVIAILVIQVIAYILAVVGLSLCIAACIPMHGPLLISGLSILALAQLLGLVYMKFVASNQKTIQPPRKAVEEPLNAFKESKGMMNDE
T2 sequence (Q08722 19-139 limits assumed): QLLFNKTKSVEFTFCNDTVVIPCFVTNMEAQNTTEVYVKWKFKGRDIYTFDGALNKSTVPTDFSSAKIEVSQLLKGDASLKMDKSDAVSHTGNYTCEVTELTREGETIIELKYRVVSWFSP

B1: CO201 humanized IgG4 anti-CD47 antibody (antibody, V domains shown)
VH: QVQLVQSGSELKKPGASVKVSCKASGYTFTNFGMHWVRQAPGQGLEWMGWINTYTGEPTYTDDFKGRFVFSLDTSVSTAYLQISSLKAEDTAVYYCARGDYRYGDSWGQGTTVTVSS
VL: DIVMTQTPLSLSVTPGQPASISCRSSQSLVHSNGKTYLHWYLQKPGQPPQLLIYRVSNRFSGVPDRFSGSGSGTDFTLKISRVEAEDVGVYYCSQSTHVPFTFGQGTKLEIK
notes: also called huCO-mAb
What is called EC50 (read off the curve) is the concentration giving half of the maximal effect. A higher EC50 (read off the curve) goes with weaker potency. As usually defined, the Kd is the constant that tells how readily two partners part at equilibrium. By koff is commonly meant the rate constant with which the complex falls apart. In general, kon refers to a measure of how fast the partners come together. In the case of B1, the “EC50 (read off the curve)” value in experiment [1] is roughly 70 ng/mL. Moreover, in experiment [2], the Kd was 0.0499 nM, the koff stood at 0.00043 s⁻¹ and the kon amounted to 8.7e+06 M⁻¹ s⁻¹.

B2: CO205 humanized IgG4 anti-CD47 antibody (antibody, V domains shown)
VH: B1 VH
VL: B1 VL with P48S
notes: also called huCO-mAb
On to B2, for which, in experiment [1], the “EC50 (read off the curve)” value was roughly 80 ng/mL. Besides, in experiment [2], the equilibrium dissociation constant (Kd) turned out to be 0.056 nM, the koff was 0.00046 s⁻¹ and the association rate constant (kon) turned out to be 8.2e+06 M⁻¹ s⁻¹.

B3: AO-A IgG1 (AO-176 candidate A) (antibody, V domains shown)
VH: QVQLVQSGAEVKKPGASVKVSCKASGYTFTNYWIHWVRQAPGQGLEWMGYTDPRTDYTEYNQKFKDRVTMTRDTSTSTVYMELSSLRSEDTAVYYCARGGRVGLGYWGQGTLVTVSS
VL: DIVMTQSPDSLAVSLGERATINCRSSQNIVQSNGNTYLEWYQQKPGQPPKLLIYKVFHRFSGVPDRFSGSGSGTDFTLTISSLQAEDVAVYYCFQGSHVPYTFGQGTKLEIKR
notes: Comparator from WO2020/198370; also called AO-A.1; AO-176 A
For orientation: EC50 means the concentration at which the effect is half-maximal. A high value points to lower potency in that assay. Turning to B3, the half-maximal effective concentration (EC50) came out at 340 ng/mL in [3], 2420 ng/mL in experiment [4], 30.3 ng/mL in experiment [5] and 0.285 ng/mL in [6]. The equilibrium dissociation constant (Kd) in [7], in [8], in [9] and in experiment [10] was 1 nM throughout. Further, the koff turned out to be 0.0006 s⁻¹ in experiment [7], 0.0008 s⁻¹ in experiment [8], 0.001 s⁻¹ in experiment [9] and 0.002 s⁻¹ in experiment [10]. Also, the association rate constant (kon) in experiment [7] is 500000 M⁻¹ s⁻¹; in experiment [8], 800000 M⁻¹ s⁻¹; in experiment [9], 1.5e+06 M⁻¹ s⁻¹; in experiment [10], 1.8e+06 M⁻¹ s⁻¹.

B4: AO-B IgG1 (AO-176 candidate B) (antibody, V domains shown)
VH: EVQLVQSGAEVKKPGESLKISCKGSGYTFTNYWIHWVRQMPGKGLEWMGYTDPRTDYTEYNQKFKDQVTISADKSISTAYLQWSSLKASDTAMYYCARGGRVGLGYWGQGTLVTVSS
VL: B3 VL
notes: Comparator from WO2020/198370; also called AO-B.1; AO-176 B
As for B4, the half-maximal effective concentration (EC50) was 3100 ng/mL in experiment [3], 3670 ng/mL in experiment [4], 74.8 ng/mL in experiment [5] and 0.559 ng/mL in experiment [6]. Further, the dissociation constant Kd in [11] stood at 3 nM; in experiment [8], 2 nM. Also, the values for the koff in experiment [11] and in [8] were 0.004 s⁻¹ and 0.001 s⁻¹, respectively. Further, the kon turned out to be 1.5e+06 M⁻¹ s⁻¹ in experiment [11] and 800000 M⁻¹ s⁻¹ in experiment [8].

B5: AO-C IgG1 (AO-176 candidate C) (antibody, V domains shown)
VH: B3 VH with A16S, N61A, K65Q, D66G, M70I, R72A, T74E, V79A
VL: B3 VL
notes: Comparator from WO2020/198370; also called AO-C.1; SC-AO-C
As to B5, the EC50 in experiment [3] was 10500 ng/mL; in [4], 21800 ng/mL; in [5], 39.5 ng/mL; in experiment [6], 5.78 ng/mL. Moreover, the equilibrium dissociation constant (Kd) in [11] worked out at 6 nM; in experiment [8], 3 nM. Further, the figures for the koff in experiment [11] and in [8] were roughly 0.01 s⁻¹ and 0.003 s⁻¹, respectively. In addition, the kon in experiment [11] was determined as 2.3e+06 M⁻¹ s⁻¹; in experiment [8] it was 1.2e+06 M⁻¹ s⁻¹.

B6: CO-1.1 antibody (chimeric CO-1 IgG1) (antibody)
heavy: not shown
light: DVVMTQTPLSLPVSLGDQASISCRSSQSLVHSNGKTYLHWYLQKPGQSPKLLIYRVSNRFSGVPDRFSGSGSGTDFTLKISRIEAEDLGVYFCSQSTHVPFTFGSGTKLEIKRTVAAPSVFIFPPSDEQLKSGTASVVCLLNNFYPREAKVQWKVDNALQSGNSQESVTEQDSKDSTYSLSSTLTLSKADYEKHKVYACEVTHQGLSSPVTKSFNRGEC
notes: Chimeric: mouse variable domains of mCO-1 with human IgG1 constant regions; also called SC-CO-1; MC-CO-1
B6 registered a 50% effective concentration (EC50) in experiment [6] of 0.0283 ng/mL. Further, the dissociation constant Kd was less than 0.001 nM in experiment [12], less than 0.001 nM in [13], 0.04 pM in [15] and less than 0.001 nM in experiment [16]. For the same molecule, the koff in [14] came to 4.7e-06 s⁻¹. The kon in experiment [14] came to 1.4e+06 M⁻¹ s⁻¹; in experiment [11], 900000 M⁻¹ s⁻¹; in experiment [8], 500000 M⁻¹ s⁻¹.

B7: CO-1 F(ab')2 antibody (other)
heavy: QIQLVQSGPELKKPGETVKISCKASGYTFTNFGMHWVKQAPGKGLKWMGWINTYTGEPTYTDDFKGRFAFSLETSASTAYLQINSLKNEDTATFFCTRGDYRYGDSWGQGTTLTVSSASTKGPSVFPLAPSSKSTSGGTAALGCLVKDYFPEPVTVSWNSGALTSGVHTFPAVLQSSGLYSLSSVVTVPSSSLGTQTYICNVNHKPSNTKVDKKVEPKSCDKTHTCPPCPAPELLG
light: B6 light
notes: F(ab')2 fragment, divalent for CD47, based on mCO-1; also called CO F(ab')2; CO-F(ab')2
As for B7, in experiment [17], the koff worked out at 4.5e-05 s⁻¹ and the on-rate constant (kon) came to 6.9e+06 M⁻¹ s⁻¹.
